Reference: patent US20140370030A1 (CENTRE NATIONAL DE LA RECHERCHE SCIENTIFIQUE CNRS, published 2014)
Blank lines part the entries; values can stand above or below the molecule they belong to.

What was measured:
[1] = biological target: recombinant human sPLA2-X (human group X secreted phospholipase A2), mature enzyme (human) (UniProt O15496); experiment: indirect ELISA on wells coated with 50 ng recombinant human sPLA2-X; one-site saturation fit, relative Kd
[2] = biological target: T1, recombinant human sPLA2-X (human group X secreted phospholipase A2), mature enzyme (human, UniProt O15496 43-165); experiment: indirect ELISA on coated recombinant human sPLA2-X, anti-mouse IgG-HRP detection; one-site saturation fit
T1 construct: also called hGX
T1 sequence: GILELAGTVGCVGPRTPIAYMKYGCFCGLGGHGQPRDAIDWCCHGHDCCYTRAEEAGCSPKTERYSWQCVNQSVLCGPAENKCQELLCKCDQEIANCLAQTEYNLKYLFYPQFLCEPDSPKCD

[3] = biological target: T1, recombinant human sPLA2-X (human group …); experiment: indirect ELISA on wells coated with 50 ng recombinant human sPLA2-X; one-site saturation fit, relative Kd
[4] = biological target: T1, recombinant human sPLA2-X (human group …); experiment: indirect ELISA on coated recombinant human sPLA2-X, streptavidin-HRP detection; one-site saturation fit
[5] = biological target: T1, recombinant human sPLA2-X (human group …); experiment: indirect ELISA on coated recombinant human sPLA2-X

B2: biotinylated monoclonal antibody #8D9 (antibody, V domains shown)
VH: EVKLVESGGGLVKPGGSLKLSCAASGFTFSNYPMSWVRQTPAKRLEWVATISSGGDDTYYPDSVKGRFTISRDNARNTLYLQMSCLRSEDTALYYCARPQLGPWGQGTTLTVSS
VL: DIVMTQAAPSVPVTPGDSVSISCRSSKSLLHSNGITYLYWFLQRPGQSPQRLIYYMSNLASGVPDRFSGRGSGTDFTLRISRVEAEDVGVYYCMQSLEYPLTFGAGTKLELKR
modifications: biotinylated (Pierce kit ref. 21435); sites not stated
notes: also called #8D9-Biot; 8D9-biot
- Kd [4]: 0.353 nM

B3: biotinylated monoclonal antibody #9C12 (antibody, V domains shown)
VH: QIQLVQSGPELKKPGETVKISCKASGYTFTNYGMNWVKQAPGKGLKWMGWIKTNTGEPTYAEEFKGRFAFSLETSASTAYLQINNLKNEDTATYFCARGNYYRPRRYFDYWGQGTTLTVSS
VL: DIQMSQSPASLSASVGETVTMTCRASENLYSNLAWYQQKQGKSPQLLVYAATNLADGVPSRFSGSGSGTQFSLKINSLQPEDFGSYYCQHFYVTPYTFGGGTKLEIKR
modifications: biotinylated (Pierce kit ref. 21435); sites not stated
notes: also called #9C12-Biot
- binding result [5]: binds

The next lines start with the values.

- Kd [1]: 8.94 nM
Molecule: commercially available monoclonal antibody H9 (ref. SC-365730, Santa Cruz Biotechnology)

- Kd [2]: 0.246 nM
- Kd [3]: 0.327 nM
B1: monoclonal anti-sPLA2-X antibody #8D9 (antibody, V domains shown)
VH: EVKLVESGGGLVKPGGSLKLSCAASGFTFSNYPMSWVRQTPAKRLEWVATISSGGDDTYYPDSVKGRFTISRDNARNTLYLQMSCLRSEDTALYYCARPQLGPWGQGTTLTVSS
VL: DIVMTQAAPSVPVTPGDSVSISCRSSKSLLHSNGITYLYWFLQRPGQSPQRLIYYMSNLASGVPDRFSGRGSGTDFTLRISRVEAEDVGVYYCMQSLEYPLTFGAGTKLELKR
notes: Mouse monoclonal antibody from a hybridoma, purified by protein A; also called 8D9 antibody; hybridoma CNCM I-4523

- Kd [3]: 0.181 nM
B4: monoclonal anti-sPLA2-X antibody #9C12 (antibody, V domains shown)
VH: QIQLVQSGPELKKPGETVKISCKASGYTFTNYGMNWVKQAPGKGLKWMGWIKTNTGEPTYAEEFKGRFAFSLETSASTAYLQINNLKNEDTATYFCARGNYYRPRRYFDYWGQGTTLTVSS
VL: DIQMSQSPASLSASVGETVTMTCRASENLYSNLAWYQQKQGKSPQLLVYAATNLADGVPSRFSGSGSGTQFSLKINSLQPEDFGSYYCQHFYVTPYTFGGGTKLEIKR
notes: Mouse monoclonal antibody from a hybridoma, purified by protein A; also called 9C12 antibody; hybridoma CNCM I-4524
